# Several values for one entry are separate records, joined by “and”; a condition that tells them apart may be missing. Equal entries are not always repeated.
# B1: dynamin-2 (natural protein, UniProt P50570 1-870, looked up)
# chain: MGNRGMEELIPLVNKLQDAFSSIGQSCHLDLPQIAVVGGQSAGKSSVLENFVGRDFLPRGSGIVTRRPLILQLIFSKTEHAEFLHCKSKKFTDFDEVRQEIEAETDRVTGTNKGISPVPINLRVYSPHVLNLTLIDLPGITKVPVGDQPPDIEYQIKDMILQFISRESSLILAVTPANMDLANSDALKLAKEVDPQGLRTIGVITKLDLMDEGTDARDVLENKLLPLRRGYIGVVNRSQKDIEGKKDIRAALAAERKFFLSHPAYRHMADRMGTPHLQKTLNQQLTNHIRESLPALRSKLQSQLLSLEKEVEEYKNFRPDDPTRKTKALLQMVQQFGVDFEKRIEGSGDQVDTLELSGGARINRIFHERFPFELVKMEFDEKDLRREISYAIKNIHGVRTGLFTPDLAFEAIVKKQVVKLKEPCLKCVDLVIQELINTVRQCTSKLSSYPRLREETERIVTTYIREREGRTKDQILLLIDIEQSYINTNHEDFIGFANAQQRSTQLNKKRAIPNQGEILVIRRGWLTINNISLMKGGSKEYWFVLTAESLSWYKDEEEKEKKYMLPLDNLKIRDVEKGFMSNKHVFAIFNTEQRNVYKDLRQIELACDSQEDVDSWKASFLRAGVYPEKDQAENEDGAQENTFSMDPQLERQVETIRNLVDSYVAIINKSIRDLMPKTIMHLMINNTKAFIHHELLAYLYSSADQSSLMEESADQAQRRDDMLRMYHALKEALNIIGDISTSTVSTPVPPPVDDTWLQSASSHSPTPQRRPVSSIHPPGRPPAVRGPTPGPPLIPVPVGAAASFSAPPIPSRPGPQSVFANSDLFPAPPQIPSRPVRIPPGIPPGVPSRRPPAAPSRPTIIRPAEPSLLD
# notes: dynamin-2 (DNM2), large GTPase; Each copy carries ONE fluorescent protein; FRET-FLIM used an EGFP-tagged copy together with an mCherry-tagged copy; number and brightness used the mCherry-tagged copy alone; The Addgene dynamin-2 plasmids may encode the rat protein (surmise); also called DNM2; Dyn-GFP; source: TZM-bl cells, transfected (plasmids obtained from Addgene), in live cells
# Tests used:
# [1] = target: the molecule itself; test: number and brightness analysis with TIRF microscopy
# [2] = target: the molecule itself; test: number and brightness analysis with TIRF microscopy; live TZM-bl cells expressing Dynamin-mCherry, exposed to HIV(JRFL) at MOI 10; 100 frames at 50 ms per frame; brightness calibrated against mCherry alone
protein,measurement,setting,value
B1,stoichiometry N,[1],8 and 6
same,stoichiometry N,[2],4

# Reference: paper PMC5263234, “Dynamin-2 Stabilizes the HIV-1 Fusion Pore with a Low Oligomeric State” (Cell Reports, 2017)
